Results on 2 molecules are retold here after patent US20150368351A1 (ENGMAB SARL, published 2015).

Assay [1] deals with T1, recombinant human BCMA Fc(kih) (human, UniProt Q02223 4-53, biotin on the avi-tag at the C-terminus of the Fc knob chain (BirA, in vivo)).
T1 construct: range 4-53;domain: Fc portion (hole chain); Monomeric Fc fusion made in HEK EBNA cells: one BCMA extracellular domain on the knob chain, paired with an unfused hole chain; also called huBCMA Fc(kih); biotinylated human BCMA; not shown: hinge and Fc portion of human IgG1, knob chain (knobs-into-holes)
T1 chain (looked up): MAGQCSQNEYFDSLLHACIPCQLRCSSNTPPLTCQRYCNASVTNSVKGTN
The assay can be described thus: SPR, Biacore T200, 25 C; IgG captured by anti-human Fab antibody on CM5 chip, BCMA Fc(kih) as analyte, 1:1 Langmuir.

Assay [2] has as its target T2, human BCMA on BCMA-expressing multiple myeloma cells (H929, RPMI-8226) (human, UniProt Q02223 1-184).
T2 construct: whole, on cells; Endogenous BCMA on H929 (ATCC CRL-9068) or RPMI 8226 (ATCC CCL-155) cells; also called TNFRSF17; H929 cells
T2 sequence (looked up): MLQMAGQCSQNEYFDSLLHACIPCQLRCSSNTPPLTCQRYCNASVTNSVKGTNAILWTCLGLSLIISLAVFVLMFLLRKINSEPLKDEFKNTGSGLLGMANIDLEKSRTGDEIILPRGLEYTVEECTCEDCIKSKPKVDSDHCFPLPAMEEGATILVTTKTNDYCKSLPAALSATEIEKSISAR
Put plainly: flow cytometry on H929 cells; IgG 20 µg/mL incubated together with competitor Δ-APRIL 2.5 µg/mL; fluorochrome-conjugated anti-human Fc detection. (In general: A flow cytometer gives signals particle by particle.)

In assay [3] the target is T1, recombinant human BCMA Fc(kih). The assay can be described thus: SPR, ProteOn XPR36, 25 C; biotinylated BCMA on NLC chip by neutravidin capture, Fab as analyte, 1:1 Langmuir. For orientation: Surface plasmon resonance follows binding to a sensor surface in real time, without labels.
Assay [4] shares this target. The assay can be described thus: competition ELISA; biotinylated human BCMA on neutravidin plate saturated with 500 or 1000 nM Fab, competitor murine APRIL 50 nM (1000 ng/mL); anti-FLAG-HRP, OD450-650.
The target is the same in assay [5]. Put plainly: competition ELISA; biotinylated human BCMA on neutravidin plate saturated with 500 or 1000 nM Fab, competitor murine APRIL 6.25 nM (140 ng/mL); anti-FLAG-HRP, OD450-650. (In general: ELISA stands for enzyme-linked immunosorbent assay.)

B1: 13A4 anti-BCMA IgG (antibody, V domains shown)
VH: EVQLVQSGAEVKKPGESLKISCKGSGYSFTSYWIGWVRQMPGKGLEWMGIIYPGDSDTRYSPSFQGQVTISADKSISTAYLQWSSLKASDTAMYYCARNGYLGDYWGQGTLVTVSS
VL: not shown
A word on the Kd: it is the constant that tells how readily two partners part at equilibrium. The term koff denotes the rate constant with which the complex falls apart. In general, kon refers to the rate constant with which the complex forms. Take B1: in assay [1], the Kd stood at 5.1 nM, the koff came to 0.00036 s⁻¹ and the kon was found to be 72000 M⁻¹ s⁻¹. In assay [2], the “Reduction (↓) in binding of anti-BCMA antibodies in presence of APRIL” value stood at 25%.

B2: anti-BCMA Fab clone 13A4 (Fab, V domains shown)
VH: EVQLVQSGAEVKKPGESLKISCKGSGYSFTSYWIGWVRQMPGKGLEWMGIIYPGDSDTRYSPSFQGQVTISADKSISTAYLQWSSLKASDTAMYYCARNGYLGDYWGQGTLVTVSS
VL: not shown
notes: detected by anti-FLAG antibody
Regarding B2, the Kd in assay [3] came out at 1.8 nM. Also, the “Reduction (↓) in OD values in presence of muAPRIL” value in assay [4] came out at 13.1%; in assay [5], 7.7%.
